From patent publication US12233115B2, “Long-acting parathyroid hormone” (Extend Biosciences, Inc., priority 2022, dated 2025)
Where two headings read alike, the source gives them in different places.

Tests used:
[1] = target: T1, DBP (Homo sapiens, UniProt P02774); settings: Norman et al. 2001, p. 51; cited from earlier work
T1 sequence (P02774 17-474): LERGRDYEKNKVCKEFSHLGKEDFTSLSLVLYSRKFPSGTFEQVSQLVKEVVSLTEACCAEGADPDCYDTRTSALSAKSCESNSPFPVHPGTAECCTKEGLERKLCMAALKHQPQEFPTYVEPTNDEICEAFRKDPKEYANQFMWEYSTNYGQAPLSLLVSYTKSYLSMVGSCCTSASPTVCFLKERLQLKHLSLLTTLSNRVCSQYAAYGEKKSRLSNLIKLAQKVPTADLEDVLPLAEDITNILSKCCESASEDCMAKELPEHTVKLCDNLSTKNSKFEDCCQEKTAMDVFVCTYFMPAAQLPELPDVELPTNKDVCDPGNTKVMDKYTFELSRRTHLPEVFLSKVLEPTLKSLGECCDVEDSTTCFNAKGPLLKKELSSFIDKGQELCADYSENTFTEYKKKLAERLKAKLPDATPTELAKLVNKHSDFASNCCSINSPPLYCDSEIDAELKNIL

[2] = tested on: VDRnuc; settings: Norman et al. 2001, p. 51; cited from earlier work
[3] = Solubility in PBS (A280); assay type: physicochemical
Method: PEG Length and Counterion Affects Solubility: The solubility of the acetate and carbonate salt form of each compound was determined as follows. For EXT611, EXT606, and EXT608, phosphate buffered saline (PBS) was added to each compound to form a saturated solution. Undissolved compound was removed by centrifugation. The concentration of dissolved compound was determined by measuring the absorbance at 280 nm using an extinction coefficient of 18,600 M^−1 cm^−1. For EXT615, EXT616, and EXT617, solubility was limited practically by the high viscosity imparted by the large PEG moieties. Highly viscous drug formulations are difficult to manipulate and require large needle bore sizes that cause increased injection site pain. PBS was added to EXT615, EXT616, and EXT617 incrementally until a solution was obtained that could be successfully pipetted through a pipet tip with a bore of approximately 1 mm diameter (enlarged by removing the end with a razor blade). The concentration of dissolved compound was determined by measuring the absorbance at 280 nm using an extinction coefficient of 18,600 M^−1 cm^−1. […] For EXT608, the acetate salt was 17.6-fold more soluble than the carbonate salt.

[4] = human, in vivo, cited from earlier work

Compound: 25-hydroxyvitamin D [25(OH)D3]
- fold tighter binding to DBP than 1α,25(OH)2D3 [1]: 668 fold

Compound: C=C1/C(=C\C=C2/CCC[C@]3(C)[C@@H]([C@H](C)CCCC(C)(C)O)CC[C@@H]23)C[C@@H](O)C[C@@H]1O [1α,25(OH)2D3, 1,25-dihydroxyvitamin D3]
- fold tighter binding to VDRnuc than 25(OH)D3 [2]: 668 fold

Compound: C=C1CC[C@H](OCCCNC(=O)CCOCCOCCOCCOCCOCCOCCOCCOCCOCCOCCOCCOCCOCCOCCOCCOCCOCCOCCOCCOCCOCCOCCOCCOCCNC(=O)CCN2C(=O)CC(SC[C@H](NC(=O)[C@H](Cc3ccccc3)NC(=O)[C@H](CC(N)=O)NC(=O)[C@H](Cc3c[nH]cn3)NC(=O)[C@@H](NC(=O)[C@H](CC(=O)O)NC(=O)[C@H](CCC(N)=O)NC(=O)[C@H](CC(C)C)NC(=O)[C@H](CCCCN)NC(=O)[C@H](CCCCN)NC(=O)[C@H](CCCNC(=N)N)NC(=O)[C@H](CC(C)C)NC(=O)[C@H](Cc3c[nH]c4ccccc34)NC(=O)[C@H](CCC(=O)O)NC(=O)[C@@H](NC(=O)[C@H](CCCNC(=N)N)NC(=O)[C@H](CCC(=O)O)NC(=O)[C@H](CCSC)NC(=O)[C@H](CO)NC(=O)[C@H](CC(N)=O)NC(=O)[C@H](CC(C)C)NC(=O)[C@H](Cc3c[nH]cn3)NC(=O)[C@H](CCCCN)NC(=O)CNC(=O)[C@H](CC(C)C)NC(=O)[C@H](CC(N)=O)NC(=O)[C@H](Cc3c[nH]cn3)NC(=O)[C@H](CCSC)NC(=O)[C@H](CC(C)C)NC(=O)[C@H](CCC(N)=O)NC(=O)[C@@H](NC(=O)[C@H](CCC(=O)O)NC(=O)[C@H](CO)NC(=O)[C@@H](NC(=O)[C@@H](N)CO)C(C)C)[C@@H](C)CC)C(C)C)C(C)C)C(N)=O)C2=O)C/C1=C/C=C1\CCC[C@]2(C)[C@@H]([C@H](C)CCCC(C)(C)O)CC[C@@H]12 (some centres unmarked) [EXT606]
- solubility ([3]; acetate salt, read-out: Solubility as Acetate): 907 µM
- solubility ([3]; carbonate salt, read-out: Solubility as Carbonate): 200 µM

Compound: PTH: Parathyroid hormone, polypeptide containing 84 amino acids (SEQ ID NO:2); literature half-life values
- plasma half-life ([4]; iv): less than 15 minutes
- serum half-life ([4]; iv): approximately 5 minutes
- apparent half-life ([4]; sc): 1.5 to 2.5 h
- plasma half-life (estimated) ([4]; sc): 2 to 3 h
